In the Immune Epitope Database (IEDB):

Key:
HLA-A*03:01 [1] = test: IEDB peptide-MHC binding, purified MHC/competitive/radioactivity; filed as Kd, often an IC50 or EC50 that approximates it; ≥ and ≤ were set here for values at or beyond the usual limits of such assays; conditions: source organism: Homo sapiens
HLA-B*07:02 [2] = test: as above; conditions: source organism: Homo sapiens
HLA-A*01:01 = test: as above
HLA-A*03:01 [3] = test: IEDB peptide-MHC binding, purified MHC/competitive/radioactivity; ≥ and ≤ were set here for values at or beyond the usual limits of such assays; conditions: source organism: Homo sapiens
HLA-B*07:02 [4] = test: as above; conditions: source organism: Homo sapiens
HLA-A*02:01 = test: as above; conditions: source organism: Homo sapiens

| Sequence | Kd (HLA-A*03:01 [1]) | Kd (HLA-B*07:02 [2]) | Kd (HLA-A*01:01; source organism: Hepatitis B virus subtype adyw) | Kd (HLA-A*01:01; source organism: Homo sapiens) | IC50 (HLA-A*03:01 [3]) | IC50 (HLA-B*07:02 [4]) | IC50 (HLA-A*02:01) |
| --- | --- | --- | --- | --- | --- | --- | --- |
| EADPTGHSY | ≥ 5 µM | ≥ 5 µM |  |  |  |  |  |
| FLPSDFFPSV |  |  | ≥ 5 µM |  |  |  |  |
| LLDVPTAAV | ≥ 5 µM | ≥ 5 µM |  | 4.31 µM |  |  |  |
| RVMAPRALL |  |  |  | ≥ 5 µM | 0.905 µM | 0.0046 µM |  |
| SLLPAIVEL | ≥ 5 µM | ≥ 5 µM |  | ≥ 5 µM |  |  | 0.024 µM |
| YLLPAIVHI | ≥ 5 µM | ≥ 5 µM |  | ≥ 5 µM |  |  |  |
